Assay results: article PMC3019181 (BMC Microbiology, 2010)

Biological target: the molecule itself
Assay: two-hybrid; yeast; pJZ4-G clones in strain RFY231 mated with pHZ5-NRT clones in strain Y309; beta-galactosidase activity in Miller units (Yeast beta-Galactosidase Assay Kit, Pierce)

B1: Wag31T73EMtb (phosphomimetic Wag31 of Mycobacterium tuberculosis) (natural protein)
chain: MPLTPADVHNVAFSKPPIGKRGYNEDEVDAFLDLVENELTRLIEENSDLRQRINELDQELAAGGGAGVTPQAEQAIPAYEPEPGKPAPAAVSAGMNEEQALKAARVLSLAQDTADRLTNTAKAESDKMLADARANAEQILGEARHTADATVAEARQRADAMLADAQSRSEAQLRQAQEKADALQADAERKHSEIMGTINQQRAVLEGRLEQLRTFEREYRTRLKTYLESQLEELGQRGSAAPVDSNADAGGFDQFNRGKN
notes: also called phosphomimetic Wag31T73EMtb; source: yeast two-hybrid fusion
  fold interaction (beta-galactosidase activity) against wild-type Wag31Mtb with itself: ~2 fold
